# Reference: article PMC9482650, “Quantitative fragmentomics allow affinity mapping of interactomes” (Nature Communications, 2022)
# T1: APBA3_1, O96018
# T1 sequence (O96018 389-490, limits assumed, looked up): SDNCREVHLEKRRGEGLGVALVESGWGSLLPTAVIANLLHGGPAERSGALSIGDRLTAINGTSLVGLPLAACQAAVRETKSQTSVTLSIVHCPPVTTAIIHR
# T2: LNX2_2, Q8N448
# T2 sequence (Q8N448 334-432, limits assumed, looked up): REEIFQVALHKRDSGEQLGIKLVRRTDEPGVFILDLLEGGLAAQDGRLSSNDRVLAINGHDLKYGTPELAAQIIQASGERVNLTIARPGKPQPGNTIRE
# T3: SHANK1, Q9Y566
# T3 sequence (Q9Y566 658-767, limits assumed, looked up): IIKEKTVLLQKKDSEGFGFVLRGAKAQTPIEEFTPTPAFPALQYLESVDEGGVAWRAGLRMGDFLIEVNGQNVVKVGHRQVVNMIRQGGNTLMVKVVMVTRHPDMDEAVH
# T4: PDZD7_3, Q9H5P4
# T4 sequence (Q9H5P4 857-944, limits assumed, looked up): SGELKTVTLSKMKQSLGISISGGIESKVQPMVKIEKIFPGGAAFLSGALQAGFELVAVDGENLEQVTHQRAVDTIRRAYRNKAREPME
# T5: MPP2, Q14168
# T5 sequence (Q14168 180-250, limits assumed, looked up): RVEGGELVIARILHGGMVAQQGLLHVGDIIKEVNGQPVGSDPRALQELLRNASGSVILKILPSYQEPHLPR
# T6: DFNB31_3, Q9P202
# T6 sequence (Q9P202 811-907, limits assumed, looked up): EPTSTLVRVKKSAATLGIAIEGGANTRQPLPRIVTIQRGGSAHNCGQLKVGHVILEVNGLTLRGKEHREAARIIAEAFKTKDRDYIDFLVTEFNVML
# T7: DLG3_3, Q92796
# T7 sequence (Q92796 374-475, limits assumed, looked up): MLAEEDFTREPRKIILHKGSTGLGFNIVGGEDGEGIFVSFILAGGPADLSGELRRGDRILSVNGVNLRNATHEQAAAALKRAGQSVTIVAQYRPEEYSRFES
# T8: DFNB31_1, Q9P202
# T8 sequence (Q9P202 135-233, limits assumed, looked up): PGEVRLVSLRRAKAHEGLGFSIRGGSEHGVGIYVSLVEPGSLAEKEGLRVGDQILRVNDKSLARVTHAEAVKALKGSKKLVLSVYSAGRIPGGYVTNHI
# T9: MPP6, Q9NZW5
# T9 sequence (Q9NZW5 125-219, limits assumed, looked up): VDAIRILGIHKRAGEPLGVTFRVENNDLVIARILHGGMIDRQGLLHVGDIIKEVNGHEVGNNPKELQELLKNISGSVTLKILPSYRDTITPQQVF
# T10: MPDZ_12, O75970
# T10 sequence (O75970 1857-1958, limits assumed, looked up): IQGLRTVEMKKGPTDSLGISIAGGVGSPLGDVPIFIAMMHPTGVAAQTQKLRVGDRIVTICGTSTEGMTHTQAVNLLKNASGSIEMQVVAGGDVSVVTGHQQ
# Experiments:
# Assay in all cases: holdup assay
# Parameters in all cases: key: below the threshold = too weak to quantify, mostly under pKd 3.1 to 4
# Details in all cases: plain residues with an end cap or a label only (N-terminal biotin on a linker: ado-ado)
# Inadl_8, Q8NI35 = target: Inadl_8, Q8NI35
# Inadl_8, Q8NI35, sequence (Q8NI35 1425-1530): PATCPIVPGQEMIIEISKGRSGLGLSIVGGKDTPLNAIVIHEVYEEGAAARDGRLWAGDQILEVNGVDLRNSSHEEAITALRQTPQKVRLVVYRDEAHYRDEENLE
# CASK, O14936 = target: CASK, O14936
# CASK, O14936, sequence (O14936 487-570): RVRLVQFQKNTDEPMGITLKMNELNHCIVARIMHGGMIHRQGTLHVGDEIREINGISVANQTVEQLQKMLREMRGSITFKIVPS
# APBA3_1, O96018 = target: T1, APBA3_1, O96018
# MAGI3_2, Q5TCQ9 = target: MAGI3_2, Q5TCQ9
# MAGI3_2, Q5TCQ9, sequence (Q5TCQ9 398-503): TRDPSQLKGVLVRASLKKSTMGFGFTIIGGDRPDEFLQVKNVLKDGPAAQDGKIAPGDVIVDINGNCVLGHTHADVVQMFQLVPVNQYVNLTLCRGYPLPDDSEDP
# GRIP2_4, Q9C0E4 = target: GRIP2_4, Q9C0E4
# GRIP2_4, Q9C0E4, sequence (Q9C0E4 446-548): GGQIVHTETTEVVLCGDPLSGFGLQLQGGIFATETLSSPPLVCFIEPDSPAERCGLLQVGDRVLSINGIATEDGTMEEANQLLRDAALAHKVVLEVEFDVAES
# LNX2_2, Q8N448 = target: T2, LNX2_2, Q8N448
# MAGI2_4, Q86UL8 = target: MAGI2_4, Q86UL8
# MAGI2_4, Q86UL8, sequence (Q86UL8 772-865): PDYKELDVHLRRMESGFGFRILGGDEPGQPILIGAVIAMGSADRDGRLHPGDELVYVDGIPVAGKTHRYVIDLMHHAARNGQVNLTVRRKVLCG
# IL16_3, Q14005 = target: IL16_3, Q14005
# IL16_3, Q14005, sequence (Q14005 1107-1207): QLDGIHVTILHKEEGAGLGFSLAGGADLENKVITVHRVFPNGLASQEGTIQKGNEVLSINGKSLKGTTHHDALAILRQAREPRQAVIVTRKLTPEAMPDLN
# LDB3, O75112 = target: LDB3, O75112
# LDB3, O75112, sequence (O75112 1-94): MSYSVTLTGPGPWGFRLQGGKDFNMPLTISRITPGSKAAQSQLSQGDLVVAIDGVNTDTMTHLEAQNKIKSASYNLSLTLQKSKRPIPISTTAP
# FRMPD3, Q5JV73 = target: FRMPD3, Q5JV73
# FRMPD3, Q5JV73, sequence (Q5JV73 12-100): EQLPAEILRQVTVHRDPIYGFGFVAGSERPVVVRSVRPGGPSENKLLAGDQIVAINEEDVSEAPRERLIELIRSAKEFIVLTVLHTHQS
# PTPN3, P26045 = target: PTPN3, P26045
# PTPN3, P26045, sequence (P26045 505-587): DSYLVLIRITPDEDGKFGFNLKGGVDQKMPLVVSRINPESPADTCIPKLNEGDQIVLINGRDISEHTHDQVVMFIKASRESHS
# SHANK1, Q9Y566 = target: T3, SHANK1, Q9Y566
# DLG4_1, P78352 = target: DLG4_1, P78352
# DLG4_1, P78352, sequence (P78352 62-152): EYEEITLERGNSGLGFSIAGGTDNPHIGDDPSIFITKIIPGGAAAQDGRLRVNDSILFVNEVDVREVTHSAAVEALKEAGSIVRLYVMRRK
# Inadl_1, Q8NI35 = target: Inadl_1, Q8NI35
# Inadl_1, Q8NI35, sequence (Q8NI35 113-229): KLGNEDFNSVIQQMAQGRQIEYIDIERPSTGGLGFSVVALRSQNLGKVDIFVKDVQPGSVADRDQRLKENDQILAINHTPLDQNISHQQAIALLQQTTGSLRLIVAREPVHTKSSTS
# PDZD7_3, Q9H5P4 = target: T4, PDZD7_3, Q9H5P4
# SCRIB_3, Q14160 = target: SCRIB_3, Q14160
# SCRIB_3, Q14160, sequence (Q14160 999-1103): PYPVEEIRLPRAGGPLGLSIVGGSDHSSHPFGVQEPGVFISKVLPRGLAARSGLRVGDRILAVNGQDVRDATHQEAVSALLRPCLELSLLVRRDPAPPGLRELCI
# GRIP2_5, Q9C0E4 = target: GRIP2_5, Q9C0E4
# GRIP2_5, Q9C0E4, sequence (Q9C0E4 544-642): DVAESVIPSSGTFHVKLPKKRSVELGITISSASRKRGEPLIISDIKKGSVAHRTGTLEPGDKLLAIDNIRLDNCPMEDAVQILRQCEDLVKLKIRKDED
# LIMK2, P53671 = target: LIMK2, P53671
# LIMK2, P53671, sequence (P53671 143-248): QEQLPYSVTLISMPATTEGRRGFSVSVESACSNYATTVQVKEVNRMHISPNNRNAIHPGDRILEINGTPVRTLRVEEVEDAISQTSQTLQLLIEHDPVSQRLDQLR
# MPP2, Q14168 = target: T5, MPP2, Q14168
# DFNB31_3, Q9P202 = target: T6, DFNB31_3, Q9P202
# DLG3_3, Q92796 = target: T7, DLG3_3, Q92796
# DFNB31_1, Q9P202 = target: T8, DFNB31_1, Q9P202
# MPP6, Q9NZW5 = target: T9, MPP6, Q9NZW5
# GRIP2_6, Q9C0E4 = target: GRIP2_6, Q9C0E4
# GRIP2_6, Q9C0E4, sequence (Q9C0E4 648-740): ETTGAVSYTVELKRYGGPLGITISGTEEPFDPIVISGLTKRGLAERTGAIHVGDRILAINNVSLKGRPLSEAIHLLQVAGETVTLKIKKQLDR
# TJP1_3, Q07157 = target: TJP1_3, Q07157
# TJP1_3, Q07157, sequence (Q07157 416-512): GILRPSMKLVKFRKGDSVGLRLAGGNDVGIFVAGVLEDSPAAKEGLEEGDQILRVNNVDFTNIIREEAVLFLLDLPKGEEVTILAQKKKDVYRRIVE
# MAGI2_6, Q86UL8 = target: MAGI2_6, Q86UL8
# MAGI2_6, Q86UL8, sequence (Q86UL8 1141-1229): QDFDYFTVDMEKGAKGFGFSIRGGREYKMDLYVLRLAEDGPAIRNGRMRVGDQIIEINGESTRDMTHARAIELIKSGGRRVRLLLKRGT
# DLG4_2, P78352 = target: DLG4_2, P78352
# DLG4_2, P78352, sequence (P78352 155-259): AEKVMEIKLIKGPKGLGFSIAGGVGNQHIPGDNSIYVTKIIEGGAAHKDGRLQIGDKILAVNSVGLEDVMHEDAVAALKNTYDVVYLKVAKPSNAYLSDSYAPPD
# MPDZ_12, O75970 = target: T10, MPDZ_12, O75970
# GRIP2_3, Q9C0E4 = target: GRIP2_3, Q9C0E4
# GRIP2_3, Q9C0E4, sequence (Q9C0E4 238-339): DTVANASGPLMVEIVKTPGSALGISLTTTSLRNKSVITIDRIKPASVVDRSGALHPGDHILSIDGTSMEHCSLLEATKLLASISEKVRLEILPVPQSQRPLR
Binder,"pKd (Inadl_8, Q8NI35)","pKd (CASK, O14936)","pKd (APBA3_1, O96018)","pKd (MAGI3_2, Q5TCQ9)","pKd (GRIP2_4, Q9C0E4)","pKd (LNX2_2, Q8N448)","pKd (MAGI2_4, Q86UL8)","pKd (IL16_3, Q14005)","pKd (LDB3, O75112)","pKd (FRMPD3, Q5JV73)","pKd (PTPN3, P26045)","pKd (SHANK1, Q9Y566)","pKd (DLG4_1, P78352)","pKd (Inadl_1, Q8NI35)","pKd (PDZD7_3, Q9H5P4)","pKd (SCRIB_3, Q14160)","pKd (GRIP2_5, Q9C0E4)","pKd (LIMK2, P53671)","pKd (MPP2, Q14168)","pKd (DFNB31_3, Q9P202)",also measured
"THHRKIHTRV [ZNF599, Q96NL3]",4.38,below the threshold,below the threshold,5.32,below the threshold,3.82,below the threshold,below the threshold,below the threshold,below the threshold,below the threshold,4.01,4.98,below the threshold,4.53,3.75,3.48,below the threshold,below the threshold,below the threshold,"pKd (DLG3_3, Q92796): 4.43; pKd (DFNB31_1, Q9P202): 3.82; pKd (MPP6, Q9NZW5): below the threshold; pKd (GRIP2_6, Q9C0E4): 3.86; pKd (TJP1_3, Q07157): below the threshold; pKd (MAGI2_6, Q86UL8): below the threshold; pKd (DLG4_2, P78352): 5.64; pKd (MPDZ_12, O75970): below the threshold; pKd (GRIP2_3, Q9C0E4): below the threshold"
"TFSRRPKTRV [CD226, Q15762]",4.6,below the threshold,below the threshold,5.24,3.54,below the threshold,below the threshold,below the threshold,below the threshold,below the threshold,below the threshold,4.06,3.62,below the threshold,4.5,below the threshold,below the threshold,below the threshold,below the threshold,below the threshold,"pKd (DLG3_3, Q92796): 3.81; pKd (DFNB31_1, Q9P202): below the threshold; pKd (MPP6, Q9NZW5): below the threshold; pKd (GRIP2_6, Q9C0E4): below the threshold; pKd (TJP1_3, Q07157): below the threshold; pKd (MAGI2_6, Q86UL8): below the threshold; pKd (DLG4_2, P78352): 3.56; pKd (MPDZ_12, O75970): below the threshold; pKd (GRIP2_3, Q9C0E4): below the threshold"
"VISSDDLTEL [CAPN6, Q9Y6Q1]",below the threshold,below the threshold,below the threshold,below the threshold,below the threshold,below the threshold,below the threshold,below the threshold,3.53,3.63,4.12,4.84,below the threshold,below the threshold,3.87,3.86,below the threshold,below the threshold,below the threshold,4,"pKd (DLG3_3, Q92796): below the threshold; pKd (DFNB31_1, Q9P202): 3.56; pKd (MPP6, Q9NZW5): below the threshold; pKd (GRIP2_6, Q9C0E4): below the threshold; pKd (TJP1_3, Q07157): below the threshold; pKd (MAGI2_6, Q86UL8): 3.59; pKd (DLG4_2, P78352): below the threshold; pKd (MPDZ_12, O75970): below the threshold; pKd (GRIP2_3, Q9C0E4): below the threshold"
"AKADAQESRL [PLCB2, Q00722]",below the threshold,below the threshold,below the threshold,below the threshold,below the threshold,below the threshold,below the threshold,below the threshold,below the threshold,below the threshold,4.74,4.33,below the threshold,below the threshold,4.29,4.44,below the threshold,below the threshold,below the threshold,below the threshold,"pKd (DLG3_3, Q92796): below the threshold; pKd (DFNB31_1, Q9P202): 4.11; pKd (MPP6, Q9NZW5): below the threshold; pKd (GRIP2_6, Q9C0E4): below the threshold; pKd (TJP1_3, Q07157): below the threshold; pKd (MAGI2_6, Q86UL8): below the threshold; pKd (DLG4_2, P78352): below the threshold; pKd (MPDZ_12, O75970): below the threshold; pKd (GRIP2_3, Q9C0E4): below the threshold"
